{
  "source": "patent US20250171562A1",
  "binders": {"B1": {"name": "B1A1(G4S)4 (bispecific antibody)", "chain": "QVQLQESGGGLVQTGGSLRLSCAVHGRTFSNTGMGWFRQAPGNERQFVAIISPSGTSTYYADSVKGRFTISRDPAKNTVYLQMNSLKMDDTAVYYCAASYGSNWSTLRHQRRNEYDAWGQGTQVAVSGGGGSGGGGSGGGGSGGGGSEVQLLESGGGLVQPGGSLRLSCAASGFTFGNYDMAWVRQAPGKRPEWVSSIDTGGDITHYADSVKGRFTISRDNAKNTLYLQMNSLRPEDTAVYWCATDEEYALGPNEFDYYGQGTLVTVS"}, "B2": {"name": "A1B1(G4S)4 (bispecific antibody)", "chain": "EVQLLESGGGLVQPGGSLRLSCAASGFTFGNYDMAWVRQAPGKRPEWVSSIDTGGDITHYADSVKGRFTISRDNAKNTLYLQMNSLRPEDTAVYWCATDEEYALGPNEFDYYGQGTLVTVSGGGGSGGGGSGGGGSGGGGSQVQLQESGGGLVQTGGSLRLSCAVHGRTFSNTGMGWFRQAPGNERQFVAIISPSGTSTYYADSVKGRFTISRDPAKNTVYLQMNSLKMDDTAVYYCAASYGSNWSTLRHQRRNEYDAWGQGTQVAVS"}, "B3": {"name": "B2A1(G4S)4 (bispecific antibody)", "chain": "QVQLVESGGGLVQAGGSLRLSCAVFGSTFSNNVADWYRQAPGKQRELVARISASGATREYGDSVKGRFTISRDDAKNTMYLQMNNLKPEDTAVYRCHKIEWEDLSRKDYWGQGTQVTVSGGGGSGGGGSGGGGSGGGGSEVQLLESGGGLVQPGGSLRLSCAASGFTFGNYDMAWVRQAPGKRPEWVSSIDTGGDITHYADSVKGRFTISRDNAKNTLYLQMNSLRPEDTAVYWCATDEEYALGPNEFDYYGQGTLVTVS"}, "B4": {"name": "A1B2(G4S)4 (bispecific antibody)", "chain": "EVQLLESGGGLVQPGGSLRLSCAASGFTFGNYDMAWVRQAPGKRPEWVSSIDTGGDITHYADSVKGRFTISRDNAKNTLYLQMNSLRPEDTAVYWCATDEEYALGPNEFDYYGQGTLVTVSGGGGSGGGGSGGGGSGGGGSQVQLVESGGGLVQAGGSLRLSCAVFGSTFSNNVADWYRQAPGKQRELVARISASGATREYGDSVKGRFTISRDDAKNTMYLQMNNLKPEDTAVYRCHKIEWEDLSRKDYWGQGTQVTVS"}, "B5": {"name": "B3A1(G4S)4 (bispecific antibody)", "chain": "DVQLQESGGGLVQAGGSLRLSCAASGFIFRLAGMSWVRQAPGKGFEWVSGITMDGSTTNYADSVKGRFTISRDNSKNRLYLQMNSLKPEDTAVYYCARGAKGGYNDPRGQGTQVTVSGGGGSGGGGSGGGGSGGGGSEVQLLESGGGLVQPGGSLRLSCAASGFTFGNYDMAWVRQAPGKRPEWVSSIDTGGDITHYADSVKGRFTISRDNAKNTLYLQMNSLRPEDTAVYWCATDEEYALGPNEFDYYGQGTLVTVS"}, "B6": {"name": "A1B3(G4S)4 (bispecific antibody)", "chain": "EVQLLESGGGLVQPGGSLRLSCAASGFTFGNYDMAWVRQAPGKRPEWVSSIDTGGDITHYADSVKGRFTISRDNAKNTLYLQMNSLRPEDTAVYWCATDEEYALGPNEFDYYGQGTLVTVSGGGGSGGGGSGGGGSGGGGSDVQLQESGGGLVQAGGSLRLSCAASGFIFRLAGMSWVRQAPGKGFEWVSGITMDGSTTNYADSVKGRFTISRDNSKNRLYLQMNSLKPEDTAVYYCARGAKGGYNDPRGQGTQVTVS"}, "B7": {"name": "D2A1(G4S)4 (bispecific antibody)", "chain": "DVQLQESGGGLVEAGGSLRLSCVASGRTFSGWSMGWFRQAPGKEREFVAAISWVGSWIGGTVYSNSVKGRFTISRDNARTTVYLQMNSLKPEDTAVYFCAAANSETPRIFASEYDYWGQGTQVTVSGGGGSGGGGSGGGGSGGGGSEVQLLESGGGLVQPGGSLRLSCAASGFTFGNYDMAWVRQAPGKRPEWVSSIDTGGDITHYADSVKGRFTISRDNAKNTLYLQMNSLRPEDTAVYWCATDEEYALGPNEFDYYGQGTLVTVS"}, "B8": {"name": "A1D2(G4S)4 (bispecific antibody)", "chain": "EVQLLESGGGLVQPGGSLRLSCAASGFTFGNYDMAWVRQAPGKRPEWVSSIDTGGDITHYADSVKGRFTISRDNAKNTLYLQMNSLRPEDTAVYWCATDEEYALGPNEFDYYGQGTLVTVSGGGGSGGGGSGGGGSGGGGSDVQLQESGGGLVEAGGSLRLSCVASGRTFSGWSMGWFRQAPGKEREFVAAISWVGSWIGGTVYSNSVKGRFTISRDNARTTVYLQMNSLKPEDTAVYFCAAANSETPRIFASEYDYWGQGTQVTVS"}, "B9": {"name": "A1A1(G4S)4 (VHH)", "chain": "EVQLLESGGGLVQPGGSLRLSCAASGFTFGNYDMAWVRQAPGKRPEWVSSIDTGGDITHYADSVKGRFTISRDNAKNTLYLQMNSLRPEDTAVYWCATDEEYALGPNEFDYYGQGTLVTVSGGGGSGGGGSGGGGSGGGGSEVQLLESGGGLVQPGGSLRLSCAASGFTFGNYDMAWVRQAPGKRPEWVSSIDTGGDITHYADSVKGRFTISRDNAKNTLYLQMNSLRPEDTAVYWCATDEEYALGPNEFDYYGQGTLVTVS"}, "B10": {"name": "sdAb B1 (VHH)", "VHH": "QVQLQESGGGLVQTGGSLRLSCAVHGRTFSNTGMGWFRQAPGNERQFVAIISPSGTSTYYADSVKGRFTISRDPAKNTVYLQMNSLKMDDTAVYYCAASYGSNWSTLRHQRRNEYDAWGQGTQVAVS"}, "B11": {"name": "sdAb B2 (VHH)", "VHH": "QVQLVESGGGLVQAGGSLRLSCAVFGSTFSNNVADWYRQAPGKQRELVARISASGATREYGDSVKGRFTISRDDAKNTMYLQMNNLKPEDTAVYRCHKIEWEDLSRKDYWGQGTQVTVS"}, "B12": {"name": "sdAb B3 (VHH)", "VHH": "DVQLQESGGGLVQAGGSLRLSCAASGFIFRLAGMSWVRQAPGKGFEWVSGITMDGSTTNYADSVKGRFTISRDNSKNRLYLQMNSLKPEDTAVYYCARGAKGGYNDPRGQGTQVTVS"}, "B13": {"name": "sdAb D2 (VHH)", "VHH": "DVQLQESGGGLVEAGGSLRLSCVASGRTFSGWSMGWFRQAPGKEREFVAAISWVGSWIGGTVYSNSVKGRFTISRDNARTTVYLQMNSLKPEDTAVYFCAAANSETPRIFASEYDYWGQGTQVTVS"}, "B14": {"name": "sdAb D1 (VHH)", "VHH": "DVQLQESGGGLVQAGGSLRLSCAASGLTFSRCDMGWFRQAPGKEREFVARISANGASTHYADFVKGRFTISRDNAKNTVYLQMNYLKPEDTAVYICAAARVPVTWQLYDYWGQGTQVTVS"}, "B15": {"name": "sdAb E1 (VHH)", "VHH": "DVQLQESGGGLVQAGGSLRLSCLASGRTFTTTSGYNMGWFRQAPGKEREFVAGIKWVSGSNRAYAESVKGRFTISRDNAKNTVYLQMNSLKPEDTAVYYCAAATGQSYVPIREYEYVYWGQGTQVTVS"}, "B16": {"name": "sdAb F3 (VHH)", "VHH": "DVQLQESGGGLVQAGGSLKLSCAASRGSLSRWDVAWFRQAPGKERSFVTRISWSGTTSYYADAVKGRFAISRDNAKNTVYLQMNSLKPEDTAVYYCAVALYGNRGYYDVNAHSYWGQGTQVTVS"}, "B17": {"name": "sdAb F4 (VHH)", "VHH": "DVQLQESGGGLVQAGGSLRLSCAVSGLSFSSMGWFRQPPGKEREFVAAISLYSGSTYYADSVKGRFTISSDNAKSTVYLQMNSLKPEDAAVYFCAADRQRTWSTFYASRQATYNYWGQGTQVTVTS"}, "B18": {"name": "sdAb F6 (VHH)", "VHH": "DVQLQESGGGLVQAGGSLRLSCAASGLTFGSYDMGWYRQAPGKQRELVGRIRNDGITYYADSVKGRFTMSRDNAKNTVYLQMNSLKPEDTAVYYCAADGTGLGHYDYWGQGTQVTVS"}, "B19": {"name": "NIgG4B1A1(RS) (Fc fusion)", "chain 1": "QVQLQESGGGLVQTGGSLRLSCAVHGRTFSNTGMGWFRQAPGNERQFVAIISPSGTSTYYADSVKGRFTISRDPAKNTVYLQMNSLKMDDTAVYYCAASYGSNWSTLRHQRRNEYDAWGQGTQVAVSRSGPPCPPCPAPEFLGGPSVFLFPPKPKDTLMISRTPEVTCVVVDVSQEDPEVQFNWYVDGVEVHNAKTKPREEQFNSTYRVVSVLTVLHQDWLNGKEYKCKVSNKGLPSSIEKTISKAKGQPREPQVYTLPPCQEEMTKNQVSLWCLVKGFYPSDIAVEWESNGQPENNYKTTPPVLDSDGSFFLYSRLTVDKSRWQEGNVFSCSVMHEALHNHYTQKSLSLSLGK", "chain 2": "EVQLLESGGGLVQPGGSLRLSCAASGFTFGNYDMAWVRQAPGKRPEWVSSIDTGGDITHYADSVKGRFTISRDNAKNTLYLQMNSLRPEDTAVYWCATDEEYALGPNEFDYYGQGTLVTVSSRSGPPCPPCPAPEFLGGPSVFLFPPKPKDTLMISRTPEVTCVVVDVSQEDPEVQFNWYVDGVEVHNAKTKPREEQFNSTYRVVSVLTVLHQDWLNGKEYKCKVSNKGLPSSIEKTISKAKGQPREPQVCTLPPSQEEMTKNQVSLSCAVKGFYPSDIAVEWESNGQPENNYKTTPPVLDSDGSFFLVSRLTVDKSRWQEGNVFSCSVMHEALHNHYTQKSLSLSLGK"}, "B20": {"name": "NIgG4B1A1(G4S)2 (Fc fusion)", "chain 1": "QVQLQESGGGLVQTGGSLRLSCAVHGRTFSNTGMGWFRQAPGNERQFVAIISPSGTSTYYADSVKGRFTISRDPAKNTVYLQMNSLKMDDTAVYYCAASYGSNWSTLRHQRRNEYDAWGQGTQVAVSGGGGSGGGGSGPPCPPCPAPEFLGGPSVFLFPPKPKDTLMISRTPEVTCVVVDVSQEDPEVQFNWYVDGVEVHNAKTKPREEQFNSTYRVVSVLTVLHQDWLNGKEYKCKVSNKGLPSSIEKTISKAKGQPREPQVYTLPPCQEEMTKNQVSLWCLVKGFYPSDIAVEWESNGQPENNYKTTPPVLDSDGSFFLYSRLTVDKSRWQEGNVFSCSVMHEALHNHYTQKSLSLSLGK", "chain 2": "EVQLLESGGGLVQPGGSLRLSCAASGFTFGNYDMAWVRQAPGKRPEWVSSIDTGGDITHYADSVKGRFTISRDNAKNTLYLQMNSLRPEDTAVYWCATDEEYALGPNEFDYYGQGTLVTVSSGGGGSGGGGSGPPCPPCPAPEFLGGPSVFLFPPKPKDTLMISRTPEVTCVVVDVSQEDPEVQFNWYVDGVEVHNAKTKPREEQFNSTYRVVSVLTVLHQDWLNGKEYKCKVSNKGLPSSIEKTISKAKGQPREPQVCTLPPSQEEMTKNQVSLSCAVKGFYPSDIAVEWESNGQPENNYKTTPPVLDSDGSFFLVSRLTVDKSRWQEGNVFSCSVMHEALHNHYTQKSLSLSLGK"}},
  "data": [
    {"biological_target": "mixture of three Der p 2 specific recombinant human IgE clones H10, H12, P4E (human) (UniProt P01854)", "sequence (P01854 other isoform, or with tags, fused parts or gaps)": "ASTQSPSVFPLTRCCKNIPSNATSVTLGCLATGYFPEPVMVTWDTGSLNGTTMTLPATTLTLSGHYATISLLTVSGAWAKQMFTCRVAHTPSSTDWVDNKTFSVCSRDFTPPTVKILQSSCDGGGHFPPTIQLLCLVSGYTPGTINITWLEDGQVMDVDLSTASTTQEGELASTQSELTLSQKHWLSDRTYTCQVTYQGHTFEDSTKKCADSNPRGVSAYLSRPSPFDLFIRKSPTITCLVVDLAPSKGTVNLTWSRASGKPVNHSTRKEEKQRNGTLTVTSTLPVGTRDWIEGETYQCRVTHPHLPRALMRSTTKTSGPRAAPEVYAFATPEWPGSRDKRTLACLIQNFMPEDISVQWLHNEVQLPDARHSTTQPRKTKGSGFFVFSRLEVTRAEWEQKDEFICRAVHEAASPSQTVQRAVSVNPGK", "experiment": "RBL-SX38 IgE displacement, FACS", "units": {"EC50": "nM", "Max effect/effect 1 µM": "%"}, "values": [
      {"binder": "B1", "EC50": 1.4, "Max effect/effect 1 µM": 100},
      {"binder": "B2", "EC50": 1.4, "Max effect/effect 1 µM": 100},
      {"binder": "B3", "EC50": 5.8, "Max effect/effect 1 µM": 92},
      {"binder": "B4", "EC50": 0.8, "Max effect/effect 1 µM": 100},
      {"binder": "B5", "EC50": 2, "Max effect/effect 1 µM": 100},
      {"binder": "B6", "EC50": 0.4, "Max effect/effect 1 µM": 99},
      {"binder": "B7", "EC50": 78.7, "Max effect/effect 1 µM": 83},
      {"binder": "B8", "EC50": 4.3, "Max effect/effect 1 µM": 98},
      {"binder": "B9", "EC50": 402, "Max effect/effect 1 µM": 45},
      {"binder": "B10", "Max effect/effect 1 µM": 54},
      {"binder": "B11", "Max effect/effect 1 µM": 23},
      {"binder": "B12", "Max effect/effect 1 µM": 7},
      {"binder": "B13", "Max effect/effect 1 µM": 22},
      {"binder": "B14", "Max effect/effect 1 µM": 12},
      {"binder": "B15", "Max effect/effect 1 µM": 0},
      {"binder": "B16", "Max effect/effect 1 µM": 5.6},
      {"binder": "B17", "Max effect/effect 1 µM": 17},
      {"binder": "B18", "Max effect/effect 1 µM": 26},
      {"binder": "B19", "EC50": 3, "Max effect/effect 1 µM": 99},
      {"binder": "B20", "EC50": 3, "Max effect/effect 1 µM": 99}
    ]}
  ]
}
